Experimental data: US20260217843A1 (APOGEE THERAPEUTICS, published 2026)
Changes are numbered by the printed parent chain.

Experiments:
[1] = molecular target: T1, Recombinant Cynomolgus OX40L Protein, His Tag (SINO BIOLOGICAL, Cat. 11057-C07H) (cynomolgus, UniProt G7NVH7 51-183); test: SPR (Biacore 8K), antibody captured, cynomolgus OX40L injected, 1:1 fit
T1 construct: Bought protein
T1 sequence: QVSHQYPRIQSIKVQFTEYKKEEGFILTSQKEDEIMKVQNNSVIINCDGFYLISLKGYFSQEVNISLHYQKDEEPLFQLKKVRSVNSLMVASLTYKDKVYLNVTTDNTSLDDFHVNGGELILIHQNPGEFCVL
Experimental: (§1) Samples were injected in a multi-cycle manner over freshly captured mAb, by regenerating the capture surfaces with injection of glycine pH 1.5 for 30 sec at a flow rate of 30 μL/min. The data was processed and analyzed with Biacore Insight Evaluation Software Version 2.0.15.12933 (GE Healthcare) as follows. […] The responses from the two buffer blank injections were then subtracted from the reference subtracted data (2-1) to yield double-referenced data, which were fit to an 1:1 binding model to determine the apparent association (ka) and dissociation rate constants (kd). Their ratio provided the apparent equilibrium dissociation constant or affinity constant (KD=kd/ka).

biotinylated hOX40L = molecular target: T2, biotinylated hOX40L (human, UniProt P23510 51-183, limits assumed, biotinylated (sites not given)); test: blocking ELISA: biotinylated hOX40L preincubated with titrated antibody, added to coated hOX40-Fc, Extravidin-HRP
T2 construct: construct not described
T2 sequence: T1 sequence with Q5R, E23K

human CD32a 167H = molecular target: T3, human CD32a 167H (human, UniProt P12318 36-218); test: SPR (Biacore 8K+), antibody captured by anti-human IgG Fc, receptor injected
T3 construct: numbering not explained
T3 sequence (looked up): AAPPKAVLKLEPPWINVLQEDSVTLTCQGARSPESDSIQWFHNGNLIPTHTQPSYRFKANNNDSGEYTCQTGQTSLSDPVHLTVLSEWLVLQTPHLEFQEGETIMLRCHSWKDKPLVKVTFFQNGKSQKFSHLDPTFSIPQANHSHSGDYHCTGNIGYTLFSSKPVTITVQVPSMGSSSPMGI
Experimental: (§2) Briefly, a CM5 Series S sensor chip functionalized with anti-human IgG Fc antibody was used to capture antibodies at 5 μg/mL. […] The chip was regenerated with 10 mM glycine pH 1.5 and 10 mM NaOH between runs.

human CD32a 167R = molecular target: T4, human CD32a 167R (human, UniProt P12318 36-218); test: as above
T4 construct: numbering not explained
T4 sequence (looked up): T3 sequence (looked up) with H132R
Experimental: as §2

human CD32b = molecular target: T5, human CD32b (human, UniProt P31994 46-217); test: as above
T5 sequence (looked up): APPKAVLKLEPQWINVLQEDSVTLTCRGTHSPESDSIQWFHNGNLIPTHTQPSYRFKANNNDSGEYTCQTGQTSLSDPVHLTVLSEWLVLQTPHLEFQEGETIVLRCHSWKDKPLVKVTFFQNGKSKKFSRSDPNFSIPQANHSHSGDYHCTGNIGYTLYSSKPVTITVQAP
Experimental: as §2

human CD16a 176V = molecular target: T6, human CD16a 176V (human, UniProt P08637 17-208); test: as above
T6 construct: Allelic variant named only as '176V'; numbering not explained
Experimental: as §2

human CD16a 176F = molecular target: T7, human CD16a 176F (human, UniProt P08637 17-208); test: as above
T7 construct: numbering not explained
Experimental: as §2

human CD16b = human CD16b (human, UniProt O75015 17-200, limits assumed); test: as above
Experimental: as §2

human CD64 = human CD64 (human, UniProt P12314 16-288); test: as above
Experimental: as §2

[2] = molecular target: T8, Recombinant Human OX40L Protein, His Tag (Acro Cat. IL3-H52H4) (human, UniProt P23510 51-183); test: SPR (Biacore 8K), antibody captured, human OX40L injected, 1:1 fit
T8 construct: Bought His-tagged protein; also called hOX40L
T8 sequence: T1 sequence with Q5R, E23K
Experimental: as §1

[3] = molecular target: T9, hOX40L added as soluble protein in cell assays (human, UniProt P23510 51-183, limits assumed); test: cell-based or functional assay
T9 sequence: T1 sequence with Q5R, E23K

C1q = molecular target: T10, C1q; test: SPR (Biacore 8K+), antibody captured by anti-human IgG Fc, C1q injected at 25 nM, mean response
T10 construct: also called Clq
Experimental: as §2

[4] = molecular target: T11, hOX40L on hOX40L-expressing CHO cells (human, UniProt P23510 1-183); test: flow cytometry on hOX40L-expressing CHO cells, gMFI, nonlinear regression
T11 construct: also called cell surface OX40L
T11 sequence: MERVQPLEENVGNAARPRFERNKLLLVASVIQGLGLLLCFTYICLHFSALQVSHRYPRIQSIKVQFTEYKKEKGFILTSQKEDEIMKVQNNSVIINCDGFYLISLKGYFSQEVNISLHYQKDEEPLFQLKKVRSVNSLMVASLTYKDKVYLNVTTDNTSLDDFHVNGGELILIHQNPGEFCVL
Experimental: Nonlinear regression was performed on geometric mean fluorescence intensity (gMFI) values to determine EC50 values (FIG. 1, TABLE 8).

human FcRn = human FcRn (human, UniProt P55899 24-297; P61769 21-119); test: SPR (Biacore 8K+), antibody captured by anti-human kappa, human FcRn injected, pH 5.8; pH 5.8
Experimental: (§3) Briefly, a CM5 Series S sensor chip functionalized with anti-human kappa antibody was used to capture antibodies at 5 μg/mL. […] The chip was regenerated with 10 mM glycine pH 1.5 and 10 mM NaOH between runs.

cynomolgus FcRn = cynomolgus FcRn (cynomolgus, UniProt Q8SPV9 24-297; Q8SPW0 21-119); test: SPR (Biacore 8K+), antibody captured by anti-human kappa, cynomolgus FcRn injected, pH 5.8; pH 5.8
Experimental: as §3

[5] = molecular target: T9, hOX40L added as soluble protein in cell …; test: cell-based or functional assay; remark: listed apart in the source

human FcRn, sequence (P55899 24-297 limits assumed, form in doubt, chain 1 of 2): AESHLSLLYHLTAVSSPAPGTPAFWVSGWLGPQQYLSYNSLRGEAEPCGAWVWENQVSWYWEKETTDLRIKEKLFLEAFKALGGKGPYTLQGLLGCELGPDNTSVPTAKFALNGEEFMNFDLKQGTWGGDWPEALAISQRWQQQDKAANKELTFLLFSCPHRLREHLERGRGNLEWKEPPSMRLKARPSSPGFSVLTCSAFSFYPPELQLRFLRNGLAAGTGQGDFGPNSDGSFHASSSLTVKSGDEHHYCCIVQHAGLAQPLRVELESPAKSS
human FcRn, sequence (P61769 21-119 limits assumed, form in doubt, chain 2 of 2): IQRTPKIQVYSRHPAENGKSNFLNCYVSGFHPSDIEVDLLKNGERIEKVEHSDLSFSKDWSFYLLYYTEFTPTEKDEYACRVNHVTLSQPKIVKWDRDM
cynomolgus FcRn, sequence (Q8SPV9 24-297 limits assumed, chain 1 of 2): as the sequence (P55899 24-297 limits assumed, form in doubt, chain 1 of 2) above, with N39D, E44Q, G99S, S189G, S190N, L217M, S269T counted along it
cynomolgus FcRn, sequence (Q8SPW0 21-119 limits assumed, chain 2 of 2): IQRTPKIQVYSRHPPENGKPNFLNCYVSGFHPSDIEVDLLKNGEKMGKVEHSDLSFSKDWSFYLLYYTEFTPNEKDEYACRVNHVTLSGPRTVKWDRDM
T10 sequence (P02745 23-245, chain 1 of 3): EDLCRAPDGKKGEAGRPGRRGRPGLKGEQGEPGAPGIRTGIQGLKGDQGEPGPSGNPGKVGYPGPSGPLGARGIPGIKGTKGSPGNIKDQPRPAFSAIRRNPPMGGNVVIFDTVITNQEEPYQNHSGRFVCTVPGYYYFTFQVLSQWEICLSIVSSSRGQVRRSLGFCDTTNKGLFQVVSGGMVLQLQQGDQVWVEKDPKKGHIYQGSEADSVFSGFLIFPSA
T10 sequence (P02746 28-253, chain 2 of 3, further chain): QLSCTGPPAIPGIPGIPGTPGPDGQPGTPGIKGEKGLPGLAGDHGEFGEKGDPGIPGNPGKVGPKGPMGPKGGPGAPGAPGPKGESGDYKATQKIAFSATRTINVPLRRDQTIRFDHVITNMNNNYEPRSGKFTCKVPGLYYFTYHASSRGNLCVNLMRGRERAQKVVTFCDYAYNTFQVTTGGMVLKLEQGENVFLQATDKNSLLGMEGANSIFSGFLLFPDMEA
T10 sequence (P02747 29-245, chain 3 of 3, further chain): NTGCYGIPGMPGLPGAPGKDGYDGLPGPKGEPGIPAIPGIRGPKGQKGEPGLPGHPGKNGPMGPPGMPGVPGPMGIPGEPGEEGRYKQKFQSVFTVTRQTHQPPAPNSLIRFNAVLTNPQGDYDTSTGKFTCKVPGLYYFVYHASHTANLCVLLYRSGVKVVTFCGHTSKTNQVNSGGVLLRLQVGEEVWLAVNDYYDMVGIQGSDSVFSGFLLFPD
human CD64, sequence (P12314 16-288 limits assumed): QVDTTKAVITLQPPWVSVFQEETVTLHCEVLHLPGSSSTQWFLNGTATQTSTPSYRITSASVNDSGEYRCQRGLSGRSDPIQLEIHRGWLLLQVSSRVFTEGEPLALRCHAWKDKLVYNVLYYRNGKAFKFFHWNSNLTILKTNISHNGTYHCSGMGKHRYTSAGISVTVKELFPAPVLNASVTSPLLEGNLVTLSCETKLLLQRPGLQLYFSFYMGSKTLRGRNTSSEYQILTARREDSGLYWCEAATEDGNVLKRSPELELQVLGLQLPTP
T7 sequence (P08637 17-208 limits assumed): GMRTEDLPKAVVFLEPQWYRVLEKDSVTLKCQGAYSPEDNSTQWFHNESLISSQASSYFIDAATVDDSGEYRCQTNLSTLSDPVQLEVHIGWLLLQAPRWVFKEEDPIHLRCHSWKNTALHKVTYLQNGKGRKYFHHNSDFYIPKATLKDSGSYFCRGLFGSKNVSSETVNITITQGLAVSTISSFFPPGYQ
human CD16b, sequence (O75015 17-200 limits assumed): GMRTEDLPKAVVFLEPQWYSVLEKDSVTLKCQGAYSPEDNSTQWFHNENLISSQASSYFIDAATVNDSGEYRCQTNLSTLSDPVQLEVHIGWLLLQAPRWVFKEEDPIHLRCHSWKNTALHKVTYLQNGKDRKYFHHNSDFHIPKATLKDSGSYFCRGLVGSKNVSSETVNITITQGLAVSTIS
T6 sequence (P08637 17-208 F176V limits assumed): as the sequence (P08637 17-208 limits assumed) above, with F160V counted along it

B1: anti-hOX40L antibody clone 114 (antibody, human IgG1, kappa, L234A L235A)
heavy: EVQVVESGGGLVQPGGSLRLSCAASGFTFSNYAMTWVRQSPGKGLEWVSLISGSGGLTKYADSVKGRFTISRDNSKKTLFLQMNSLRAEDTAAYYCVKDEGLTTGEYWGQGTQVTVSSASTKGPSVFPLAPSSKSTSGGTAALGCLVKDYFPEPVTVSWNSGALTSGVHTFPAVLQSSGLYSLSSVVTVPSSSLGTQTYICNVNHKPSNTKVDKKVEPKSCDKTHTCPPCPAPEAAGGPSVFLFPPKPKDTLYITREPEVTCVVVDVSHEDPEVKFNWYVDGVEVHNAKTKPREEQYNSTYRVVSVLTVLHQDWLNGKEYKCKVSNKALPAPIEKTISKAKGQPREPQVYTLPPSRDELTKNQVSLTCLVKGFYPSDIAVEWESNGQPENNYKTTPPVLDSDGSFFLYSKLTVDKSRWQQGNVFSCSVMHEALHNHYTQKSLSLSPG
light: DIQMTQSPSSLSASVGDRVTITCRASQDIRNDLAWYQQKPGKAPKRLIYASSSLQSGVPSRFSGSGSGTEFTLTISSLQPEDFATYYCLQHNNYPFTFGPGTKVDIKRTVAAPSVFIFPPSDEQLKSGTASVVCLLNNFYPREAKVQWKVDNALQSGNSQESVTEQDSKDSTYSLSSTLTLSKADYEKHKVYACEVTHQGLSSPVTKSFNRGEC
[1]
  Kd: 0.0336 nM
  koff: 7.73e-05 s⁻¹
  kon: 2.3e+06 M⁻¹ s⁻¹
Biotinylated hOX40L
  IC50: 1.12 nM
Human CD32a 167H
  binding result: no binding (tested: 8 µM)
Human CD32a 167R
  binding result: no binding (tested: 8 µM)
Human CD32b
  binding result: no binding (tested: 18 µM)
Human CD16a 176V
  binding result: no binding (tested: 6 µM)
Human CD16a 176F
  binding result: no binding (tested: 6 µM)
Human CD16b
  binding result: no binding (tested: 10 µM)
Human CD64
  binding result: no binding (tested: 12.5 nM)
[2]
  Kd: 0.106 nM
  koff: 0.000114 s⁻¹
  kon: 1.07e+06 M⁻¹ s⁻¹
[3]
  Donor 1 IC50, IL-2 release by pre-activated human CD4+ T cells with 20 ng/ml human OX40L: 1.25 nM
  Donor 2 IC50, IL-2 release by pre-activated human CD4+ T cells with 20 ng/ml human OX40L: 1.19 nM
  Donor 3 IC50, IL-2 release by pre-activated human CD4+ T cells with 20 ng/ml human OX40L: 1.18 nM
C1q
  RU at 25 nM C1q: -4.8 RU
[4]
  EC50: 4.04 nM
Human FcRn
  Kd: 141 nM
  koff: 0.0471 s⁻¹
  kon: 333000 M⁻¹ s⁻¹
Cynomolgus FcRn
  Kd: 117 nM
  koff: 0.0445 s⁻¹
  kon: 381000 M⁻¹ s⁻¹
[5]
  IC50, luminescence (RLU), hOX40 reporter cells with 50 ng/mL hOX40L: 0.732 nM
